The assay has as its target T1, EMR2 (human, UniProt Q9UHX3).
T1 chain: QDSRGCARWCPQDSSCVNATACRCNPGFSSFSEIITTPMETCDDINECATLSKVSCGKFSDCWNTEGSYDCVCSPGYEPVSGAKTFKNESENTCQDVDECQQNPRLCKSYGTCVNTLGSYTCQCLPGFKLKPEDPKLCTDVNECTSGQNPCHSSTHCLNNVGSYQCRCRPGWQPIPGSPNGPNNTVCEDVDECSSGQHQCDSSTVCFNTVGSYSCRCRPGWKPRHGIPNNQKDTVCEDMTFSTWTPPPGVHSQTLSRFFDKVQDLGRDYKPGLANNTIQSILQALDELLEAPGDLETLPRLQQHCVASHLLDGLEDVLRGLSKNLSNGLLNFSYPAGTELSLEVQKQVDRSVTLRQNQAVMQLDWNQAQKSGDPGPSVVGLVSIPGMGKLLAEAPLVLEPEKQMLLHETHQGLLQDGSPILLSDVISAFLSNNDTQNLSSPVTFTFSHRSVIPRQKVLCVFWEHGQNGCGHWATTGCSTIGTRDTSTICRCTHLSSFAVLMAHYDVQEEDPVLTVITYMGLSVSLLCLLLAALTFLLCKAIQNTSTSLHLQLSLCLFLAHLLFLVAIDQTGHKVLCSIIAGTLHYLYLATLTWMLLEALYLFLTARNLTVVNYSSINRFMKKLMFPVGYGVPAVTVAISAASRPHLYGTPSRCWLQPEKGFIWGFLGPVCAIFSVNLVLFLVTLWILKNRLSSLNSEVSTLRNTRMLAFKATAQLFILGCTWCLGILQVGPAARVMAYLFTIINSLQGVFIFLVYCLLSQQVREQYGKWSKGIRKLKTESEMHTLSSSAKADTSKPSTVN
Description: ELISA.

B1: EMR2-1-scFv (antibody, V domains shown)
VH: QVQLVQSGAEVKKPGASVKVSCKASGYTFTSYGISWVRQAPGQGLEWMGWISAYNGNTNYAQKLQGRVTMTTDTSTSTAYMELRSLRSDDTAVYYCARGYAFDIWGQGTMVTVSS
VL: SYELTQPLSVSVALGQTARITCGGNNIGSKNVHWYQQKPGQAPVLVIYRDSNRPSGIPERFSGSNSGNTATLTINRAQAGDEADYYCQVWDSSTVVFGGGTELTVL
As usually defined, the EC50 is the concentration needed to bring the measured effect to its halfway point. In the case of B1, the EC50 is below 1 nM.

B2: EMR2-2-scFv (antibody, V domains shown)
VH: QVQPVESGGGLVQPGGSLRLSCAASGFTFSSYEMNWVRQAPGKGLEWVSAISGGGGSTYYADSVKGRFTISRDNSKNTLYLQMNSLRAEDTAVYYCAKSGRGWAAAGRWGQGTLVTVSS
VL: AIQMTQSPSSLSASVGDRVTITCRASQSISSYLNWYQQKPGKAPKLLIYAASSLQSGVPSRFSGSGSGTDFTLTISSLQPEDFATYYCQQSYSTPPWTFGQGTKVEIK
On to B2, for which the EC50 is below 1 nM.

B3: EMR2-3-VH (designed binder)
chain: QVQLVQSGGGLVQPGGSLRLSCAASDFSFDSYEMSWVRQAPGKGLEWVSSISASGGRTFYADSVKGRFTISRDNSKNTLYLQMNTLRAEDTALYYCARHPGIMGQGTLVTVSS
B3 returned an EC50 below 1 nM.

For the origin of these results see patent US20260356970 (published 2026).
